Literature values, collected in patent US20200069786A1, “COMPOSITION AND PROCESS FOR PREPARING VACCINE” (TREOS BIO ZRT., priority 2018, published 2020).
Read-outs that look alike come from different tables or passages of the source.

System: TSA
[1] = TSA expression rate in BLADDER cancer
[2] = TSA expression rate in Cervical cancer
[3] = TSA expression rate in MELANOMA
[4] = TSA expression rate in HEAD and NECK

B1: PEPP2 (protein, UniProt Q9BQY4 1-288, looked up)
Rhox homeobox family member 2: MEPPDQCSQYMTSLLSPAVDDEKELQDMNAMVLSLTEEVKEEEEDAQPEPEQGTAAGEKLKSAGAQGGEEKDGGGEEKDGGGAGVPGHLWEGDLEGTSGSDGNVEDSDQSEKEPGQQYSRPQGAVGGLEPGNAQQPNVHAFTPLQLQELERIFQREQFPSEFLRRRLARSMNVTELAVQIWFENRRAKWRRHQRALMARNMLPFMAVGQPVMVTAAEAITAPLFISGMRDDYFWDHSHSSSLCFPMPPFPPPSLPLPLMLLPPMPPAGQAEFGPFPFVIVPSFTFPNV
- TSA Expression Rate (ER) (BREAST): 60%

B2: PIWIL2 (protein, UniProt Q8TC59 1-973, looked up)
Piwi-like protein 2: MDPFRPSFRGQSPIHPSQCQAVRMPGCWPQASKPLDPALGRGAPAGRGHVFGKPEEPSTQRGPAQRESVGLVSMFRGLGIETVSKTPLKREMLPSGRGILGRGLSANLVRKDREELSPTFWDPKVLAAGDSKMAETSVGWSRTLGRGSSDASLLPLGRAAGGISREVDKPPCTFSTPSRGPPQLSSPPALPQSPLHSPDRPLVLTVEHKEKELIVKQGSKGTPQSLGLNLVKIQCHNEAVYQYHVTFSPNVECKSMRFGMLKDHQAVTGNVTAFDGSILYLPVKLQQVLELKSQRKTDSAEISIKIQMTKILEPCSDLCIPFYNVVFRRVMKLLDMKLVGRNFYDPTSAMVLQQHRLQIWPGYAASIRRTDGGLFLLADVSHKVIRNDCVLDVMHAIYQQNKEHFQDECTKLLVGNIVITRYNNRTYRIDDVDWNKTPKDSFTMSDGKEITFLEYYSKNYGITVKEEDQPLLIHRPSERQDNHGMLLKGEILLLPELSFMTGIPEKMKKDFRAMKDLAQQINLSPKQHHSALECLLQRIAKNEAATNELMRWGLRLQKDVHKIEGRVLPMERINLKNTSFITSQELNWVKEVTRDPSILTIPMHFWALFYPKRAMDQARELVNMLEKIAGPIGMRMSPPAWVELKDDRIETYVRTIQSTLGAEGKIQMVVCIIMGPRDDLYGAIKKLCCVQSPVPSQVVNVRTIGQPTRLRSVAQKILLQINCKLGGELWGVDIPLKQLMVIGMDVYHDPSRGMRSVVGFVASINLTLTKWYSRVVFQMPHQEIVDSLKLCLVGSLKKFYEVNHCLPEKIVVYRDGVSDGQLKTVANYEIPQLQKCFEAFENYQPKMVVFVVQKKISTNLYLAAPQNFVTPTPGTVVDHTITSCEWVDFYLLAHHVRQGCGIPTHYVCVLNTANLSPDHMQRLTFKLCHMYWNWPGTIRVPAPCKYAHKLAFLSGHILHHEPAIQLCENLFFL
- TSA Expression Rate (ER) (BRAIN): 64%
- TSA Expression Rate (ER) (BREAST): 94%
- TSA Expression Rate (ER) (LUNG): 66%
- TSA Expression Rate (ER) (OVARIAN): 61%
- TSA Expression Rate (ER) (THYROID): 88%
- Expression Rate (ER) % [1]: 82%
- Expression Rate (ER) % (TSA expression rate in CRC): 80%
- Expression Rate (ER) % [2]: 100%
- Expression Rate (ER) % (TSA expression rate in Kidney): 49%
- Expression Rate (ER) % (TSA expression rate in PROSTATE cancer): 100%

B3: ACTL8 (protein, UniProt Q9H568 1-366, looked up)
Actin-like protein 8: MAARTVIIDHGSGFLKAGTAGWNEPQMVFPNIVNYLPCKENPGPSYARRRVSLGIDICHPDTFSYPIERGRILNWEGVQYLWSFVLENHRREQEVPPVIITETPLREPADRKKMLEILFELLHVPSVLLADQLQMSLYASGLLTGVVVDSGYGLTRVQPFHQGRPLPASGKTLEFAGQDLSAYLLKSLFKEDCDRRCLFQLETVAVTQMNKCYVPQNLGEALDFRERQQSALDESNTYQLPDGSRVELTPMQRVAPEMFFSPQVFEQPGPSIPRAIVESVESCEISLRPLLVSHVMACGGNTLYPGFTKRLFRELMGDHVSSTKATVWEGSNRNFSVWLGASVVAHLSTYQSEWMSREEYGEHMRM
- TSA Expression Rate (ER) (BRAIN): 54%

B4: gp100 (protein, UniProt P40967 25-661, looked up)
Melanocyte protein PMEL: KVPRNQDWLGVSRQLRTKAWNRQLYPEWTEAQRLDCWRGGQVSLKVSNDGPTLIGANASFSIALNFPGSQKVLPDGQVIWVNNTIINGSQVWGGQPVYPQETDDACIFPDGGPCPSGSWSQKRSFVYVWKTWGQYWQVLGGPVSGLSIGTGRAMLGTHTMEVTVYHRRGSRSYVPLAHSSSAFTITDQVPFSVSVSQLRALDGGNKHFLRNQPLTFALQLHDPSGYLAEADLSYTWDFGDSSGTLISRALVVTHTYLEPGPVTAQVVLQAAIPLTSCGSSPVPGTTDGHRPTAEAPNTTAGQVPTTEVVGTTPGQAPTAEPSGTTSVQVPTTEVISTAPVQMPTAESTGMTPEKVPVSEVMGTTLAEMSTPEATGMTPAEVSIVVLSGTTAAQVTTTEWVETTARELPIPEPEGPDASSIMSTESITGSLGPLLDGTATLRLVKRQVPLDCVLYRYGSFSVTLDIVQGIESAEILQAVPSGEGDAFELTVSCQGGLPKEACMEISSPGCQPPAQRLCQPVLPSPACQLVLHQILKGGSGTYCLNVSLADTNSLAVVSTQLIMPGQEAGLGQVPLIVGILLVLMAVVLASLIYRRRLMKQDFSVPQLPHSSSHWLRLPRIFCSCPIGENSPLLSGQQV
- TSA Expression Rate (ER) (BRAIN): 85%
- Expression Rate (ER) % [3]: 82%

B5: GAGE-1 (protein, UniProt P0DTW1 1-117, looked up)
G antigen 1: MSWRGRSTYYWPRPRRYVQPPEMIGPMRPEQFSDEVEPATPEEGEPATQRQDPAAAQEGEDEGASAGQGPKPEADSQEQGHPQTGCECEDGPDGQEMDPPNPEEVKTPEEGEGQSQC
- TSA Expression Rate (ER) (BRAIN): 42%
- Expression Rate (ER) % [4]: 39%

B6: XAGE-3 (protein, UniProt Q8WTP9 1-111, looked up)
X antigen family member 3: MIWRGRSTYRPRPRRSVPPPELIGPMLEPGDEEPQQEEPPTESRDPAPGQEREEDQGAAETQVPDLEADLQELSQSKTGGECGNGPDDQGKILPKSEQFKMPEGGDRQPQV
- TSA Expression Rate (ER) (BRAIN): 60%
- Expression Rate (ER) % [4]: 12%
- Expression Rate (ER) % [3]: 0%

B7: MAGE-A1l (protein, UniProt P43364 1-429, looked up)
Melanoma-associated antigen 11: METQFRRGGLGCSPASIKRKKKREDSGDFGLQVSTMFSEDDFQSTERAPYGPQLQWSQDLPRVQVFREQANLEDRSPRRTQRITGGEQVLWGPITQIFPTVRPADLTRVIMPLEQRSQHCKPEEGLQAQEEDLGLVGAQALQAEEQEAAFFSSTLNVGTLEELPAAESPSPPQSPQEESFSPTAMDAIFGSLSDEGSGSQEKEGPSTSPDLIDPESFSQDILHDKIIDLVHLLLRKYRVKGLITKAEMLGSVIKNYEDYFPEIFREASVCMQLLFGIDVKEVDPTSHSYVLVTSLNLSYDGIQCNEQSMPKSGLLIIVLGVIFMEGNCIPEEVMWEVLSIMGVYAGREHFLFGEPKRLLTQNWVQEKYLVYRQVPGTDPACYEFLWGPRAHAETSKMKVLEYIANANGRDPTSYPSLYEDALREEGEGV
- TSA Expression Rate (ER) (BRAIN): 85%

B8: MAGE-A11 (protein, UniProt P43364 1-429, looked up)
Melanoma-associated antigen 11: B7 Melanoma-associated antigen 11
- TSA Expression Rate (ER) (BREAST): 59%
- TSA Expression Rate (ER) (HCC): 36%
- Expression Rate (ER) % [4]: 37%
- Expression Rate (ER) % [3]: 54%

B9: SPAG9 (protein, UniProt O60271 1-1321, looked up)
C-Jun-amino-terminal …: MELEDGVVYQEEPGGSGAVMSERVSGLAGSIYREFERLIGRYDEEVVKELMPLVVAVLENLDSVFAQDQEHQVELELLRDDNEQLITQYEREKALRKHAEEKFIEFEDSQEQEKKDLQTRVESLESQTRQLELKAKNYADQISRLEEREAELKKEYNALHQRHTEMIHNYMEHLERTKLHQLSGSDQLESTAHSRIRKERPISLGIFPLPAGDGLLTPDAQKGGETPGSEQWKFQELSQPRSHTSLKVSNSPEPQKAVEQEDELSDVSQGGSKATTPASTANSDVATIPTDTPLKEENEGFVKVTDAPNKSEISKHIEVQVAQETRNVSTGSAENEEKSEVQAIIESTPELDMDKDLSGYKGSSTPTKGIENKAFDRNTESLFEELSSAGSGLIGDVDEGADLLGMGREVENLILENTQLLETKNALNIVKNDLIAKVDELTCEKDVLQGELEAVKQAKLKLEEKNRELEEELRKARAEAEDARQKAKDDDDSDIPTAQRKRFTRVEMARVLMERNQYKERLMELQEAVRWTEMIRASRENPAMQEKKRSSIWQFFSRLFSSSSNTTKKPEPPVNLKYNAPTSHVTPSVKKRSSTLSQLPGDKSKAFDFLSEETEASLASRREQKREQYRQVKAHVQKEDGRVQAFGWSLPQKYKQVTNGQGENKMKNLPVPVYLRPLDEKDTSMKLWCAVGVNLSGGKTRDGGSVVGASVFYKDVAGLDTEGSKQRSASQSSLDKLDQELKEQQKELKNQEELSSLVWICTSTHSATKVLIIDAVQPGNILDSFTVCNSHVLCIASVPGARETDYPAGEDLSESGQVDKASLCGSMTSNSSAETDSLLGGITVVGCSAEGVTGAATSPSTNGASPVMDKPPEMEAENSEVDENVPTAEEATEATEGNAGSAEDTVDISQTGVYTEHVFTDPLGVQIPEDLSPVYQSSNDSDAYKDQISVLPNEQDLVREEAQKMSSLLPTMWLGAQNGCLYVHSSVAQWRKCLHSIKLKDSILSIVHVKGIVLVALADGTLAIFHRGVDGQWDLSNYHLLDLGRPHHSIRCMTVVHDKVWCGYRNKIYVVQPKAMKIEKSFDAHPRKESQVRQLAWVGDGVWVSIRLDSTLRLYHAHTYQHLQDVDIEPYVSKMLGTGKLGFSFVRITALMVSCNRLWVGTGNGVIISIPLTETNKTSGVPGNRPGSVIRVYGDENSDKVTPGTFIPYCSMAHAQLCFHGHRDAVKFFVAVPGQVISPQSSSSGTDLTGDKAGPSAQEPGSQTPLKSMLVISGGEGYIDFRMGDEGGESELLGEDLPLEPSVTKAERSHLIVWQVMYGNE
- TSA Expression Rate (ER) (BRAIN): 60%
- TSA Expression Rate (ER) (BREAST): 88%
- TSA Expression Rate (ER) (HCC): 52%
- TSA Expression Rate (ER) (LUNG): 56%
- TSA Expression Rate (ER) (OVARIAN): 90%
- TSA Expression Rate (ER) (THYROID): 78%
- Expression Rate (ER) % [1]: 81%
- Expression Rate (ER) % (TSA expression rate in CRC): 71%
- Expression Rate (ER) % [2]: 82%
- Expression Rate (ER) % (TSA expression rate in Kidney): 88%
- Expression Rate (ER) % (TSA expression rate in LEUKEMIAS): 100%
